Where two headings read alike, the source gives them in different places.
How the values were obtained:
microorganisms = details: cited from earlier work
wound healing = details: cited from earlier work
[1] = 25 ± 2° C./60% RH ± 5%, 1 month
[2] = 25 ± 2° C./60% RH ± 5%, 3 months

TSSPTSNPVTTTKPVTTTKPVTTTTKPVTTTTKPVT (TSS36) [collagen VI derived polypeptide]
Antimicrobial activity? (microorganisms): Yes

VVHAINAIVRSPRGGARRHA (VVH20) [collagen VI derived polypeptide]
Antimicrobial activity? (microorganisms): Yes

LRLKPYGALVDKVKSFTKRF (LRL20) [collagen VI derived polypeptide]
Antimicrobial activity? (microorganisms): Yes

GFAHIRDFVSRIVRRLNIGP (GFA20) [collagen VI derived polypeptide]
Antimicrobial activity? (microorganisms): Yes

RDALKSSVDAVKYFGKGTYT (RDA20) [collagen VI derived polypeptide]
Antimicrobial activity? (microorganisms): Yes

YDRLIKESRRQKTRVFAVVI (YDR20) [collagen VI derived polypeptide]
Antimicrobial activity? (microorganisms): Yes

VAAKPVATKMAVRPPVAVKP (VAA20) [collagen VI derived polypeptide]
Antimicrobial activity? (microorganisms): Yes

VTTEIRFADSKRKSVLLDKIKNLQVALTSK (VTT30) [collagen VI derived polypeptide]
Antimicrobial activity? (microorganisms): Yes
Wound healing activity? (wound healing): have wound healing properties and Yes

TKRFAKRLAERFLTAGRTDP (TKR20) [collagen VI derived polypeptide]
Antimicrobial activity? (microorganisms): Yes

DVNVFAIGVEDADEGALKEIASEPLNMHMFNL (DVN32) [collagen VI derived polypeptide]
Antimicrobial activity? (microorganisms): No
Wound healing activity? (wound healing): No

SFVARNTFKRVRNGFLMRKVAVFFSNTPTRASP (SFV33) [peptide derived from collagen VI alpha-3 chain]
Appearance (25 ± 2° C./60% RH ± 5%, 0 D): White powder
Identity (RP-HPLC) (25 ± 2° C./60% RH ± 5%, 0 D): Retention Time Conforms
Impurity (Report all ≥0.10%): RRT = 0.65 (25 ± 2° C./60% RH ± 5%, 0 D): 0.17%
Impurity (Report all ≥0.10%): RRT = 1.02 (25 ± 2° C./60% RH ± 5%, 0 D): 0.23%
No other individual impurity ≥0.50% (25 ± 2° C./60% RH ± 5%, 0 D): conforms
Purity (RP-HPLC) (25 ± 2° C./60% RH ± 5%, 0 D): 98.1%
Related Impurities (by RRT), Specified Impurity %: RRT = 0.90 (25 ± 2° C./60% RH ± 5%, 0 D): 0.26%
Related Impurities (by RRT), Specified Impurity %: RRT = 0.95 (25 ± 2° C./60% RH ± 5%, 0 D): 0.14%
Related Impurities (by RRT), Specified Impurity %: RRT = 0.97 (25 ± 2° C./60% RH ± 5%, 0 D): 0.47%
Water Content (KF) (25 ± 2° C./60% RH ± 5%, 0 D): 4.7%
Appearance [1]: White powder
Identity (RP-HPLC) [1]: Retention Time Conforms
Impurity (Report all ≥0.10%): RRT = 0.66 [1]: 0.13%
Impurity (Report all ≥0.10%): RRT = 0.85 [1]: 0.11%
Impurity (Report all ≥0.10%): RRT = 1.02 [1]: 0.31%
Impurity (Report all ≥0.10%): RRT = 1.04 [1]: 0.17%
Impurity (Report all ≥0.10%): RRT = 1.08 [1]: 0.24%
No other individual impurity ≥0.50% [1]: conforms
Purity (RP-HPLC) [1]: 97.8%
Related Impurities (by RRT), Specified Impurity %: RRT = 0.90 [1]: 0.24%
Related Impurities (by RRT), Specified Impurity %: RRT = 0.95 [1]: 0.13%
Related Impurities (by RRT), Specified Impurity %: RRT = 0.97 [1]: 0.47%
Water Content (KF) [1]: 6.8%
Appearance [2]: White powder
Identity (RP-HPLC) [2]: Retention Time Conforms
Impurity (Report all ≥0.10%): RRT = 0.62 [2]: 0.15%
Impurity (Report all ≥0.10%): RRT = 0.84 [2]: 0.28%
No other individual impurity ≥0.50% [2]: Not conforms *
Purity (RP-HPLC) [2]: 96.9%
Related Impurities (by RRT), Specified Impurity %: RRT = 0.90 [2]: 0.20%
Related Impurities (by RRT), Specified Impurity %: RRT = 0.95 [2]: 0.09%
Related Impurities (by RRT), Specified Impurity %: RRT = 0.97 [2]: 0.42%
Water Content (KF) [2]: 8.4%
change in purity during the initial 3 months (stored at 25° C.): slight decrease in purity
new impurities (stored at 25° C., at 3 months): some new impurities were detected
change of water content (stored at 25° C., over the 3 months): increased
Appearance (−20 ± 5° C., 0 D): White powder
Identity (RP-HPLC) (−20 ± 5° C., 0 D): Retention Time Conforms
Impurity (Report all ≥0.10%): RRT = 0.65 (−20 ± 5° C., 0 D): 0.17%
Impurity (Report all ≥0.10%): RRT = 1.02 (−20 ± 5° C., 0 D): 0.23%
No other individual impurity ≥0.50% (−20 ± 5° C., 0 D): conforms
Purity (RP-HPLC) (−20 ± 5° C., 0 D): 98.1%
Related Impurities (by RRT), Specified Impurity %: RRT = 0.90 (−20 ± 5° C., 0 D): 0.26%
Related Impurities (by RRT), Specified Impurity %: RRT = 0.95 (−20 ± 5° C., 0 D): 0.14%
Related Impurities (by RRT), Specified Impurity %: RRT = 0.97 (−20 ± 5° C., 0 D): 0.47%
Water Content (KF) (−20 ± 5° C., 0 D): 4.7%
Appearance (−20 ± 5° C., 1 month): White powder
Identity (RP-HPLC) (−20 ± 5° C., 1 month): Retention Time Conforms
Impurity (Report all ≥0.10%): RRT = 1.03 (−20 ± 5° C., 1 month): 0.24%
No other individual impurity ≥0.50% (−20 ± 5° C., 1 month): conforms
Purity (RP-HPLC) (−20 ± 5° C., 1 month): 98.3%
Related Impurities (by RRT), Specified Impurity %: RRT = 0.90 (−20 ± 5° C., 1 month): 0.23%
Related Impurities (by RRT), Specified Impurity %: RRT = 0.95 (−20 ± 5° C., 1 month): 0.10%
Related Impurities (by RRT), Specified Impurity %: RRT = 0.98 (−20 ± 5° C., 1 month): 0.44%
Water Content (KF) (−20 ± 5° C., 1 month): 4.9%
Antimicrobial activity? (microorganisms): Yes
Wound healing activity? (wound healing): No

QAPVLDAIRRLRLRGGSPLN (QAP20) [collagen VI derived polypeptide]
Antimicrobial activity? (microorganisms): Yes

TTKPVTTTKPVTTTTKPVTT (TTK20) [collagen VI derived polypeptide]
Antimicrobial activity? (microorganisms): Yes

FTKRFIDNLRDRYYRCDRNL (FTK20) [collagen VI derived polypeptide]
Antimicrobial activity? (microorganisms): Yes

EQNFHKARRFVEQVARRLTL (EQN20) [collagen VI derived polypeptide]
Antimicrobial activity? (microorganisms): Yes

FYLKTYRSQAPVLDAIRRLRLRGGS (FYL25) [collagen VI derived polypeptide]
Antimicrobial activity? (microorganisms): Yes
Wound healing activity? (wound healing): have wound healing properties and Yes

RKVAVFFSNTPTRASPQLRE (RKV20) [collagen VI derived polypeptide]
Antimicrobial activity? (microorganisms): Yes

FFLKDFSTKRQIIDAINKVVYKGGR (FFL25) [collagen VI derived polypeptide]
Antimicrobial activity? (microorganisms): Yes
Wound healing activity? (wound healing): have wound healing properties and Yes

KGFESKVDAILNRISQMHRV (KGF20) [collagen VI derived polypeptide]
Antimicrobial activity? (microorganisms): Yes

KPEILNLVKRMKIKTGKALN (KPE20) [collagen VI derived polypeptide]
Antimicrobial activity? (microorganisms): Yes

AAKPVATKPEVPRPQAAKPA (AAK20) [collagen VI derived polypeptide]
Antimicrobial activity? (microorganisms): Yes

B1: AAAKPAPAKPVAAKPVATKMATVRPPVAVKPATAAKPVAAKPAAVRPPAAAAAKPVATKPEVPRPQAAKPAATKPA (peptide)
chain: AAAKPAPAKPVAAKPVATKMATVRPPVAVKPATAAKPVAAKPAAVRPPAAAAAKPVATKPEVPRPQAAKPAATKPA
modifications: AAA76
notes: collagen VI derived polypeptide
Antimicrobial activity? (microorganisms): Yes
